Assay results taken from the supplement of paper PMC9170038.

Each sequence was assayed on K4 kissing-loop RNA reporter (assay: apparent KD of K4 kissing-loop reporter; higher = weaker reporter binding). Conditions: Eterna round: R107; input ligand: theophylline 20 uM.
Protocol: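 RNA-MaP round R107: designed RNA switches with theophylline, tryptophan, arginine or FMN aptamers are transcribed on-chip within common flanks. They are titrated with a labelled K4 kissing-loop RNA reporter in RNA-MaP buffer (100 mM Tris pH 7.5, 80 mM KCl, 4 mM MgCl2), without ligand or with the indicated ligand. Median apparent KD per design.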
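Note: bound reporter read as fluorescence of individual clusters on recovered sequencing chips by microscopy, with normalized cluster intensities fitted with a binding model.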

Sequence | apparent KD of K4 kissing-loop reporter [nM]
GCCGUAGAUUGAAGGAGCGAGUAGGCUCACUUGCGAAGUGAAUAGCAGAGUGAUGUUCUGUCUCAGGUAGGUCGCAAUCUACGGC | 436
UAUUUGAUGUCAGGAUAUCGUAUACGAGUGAUGUUCGUAUUUCUACUAUAGAUUAUUUAAAUUUUUCGAGAAGGGACAACAUUUA [#04 K4 FMN B Same State] | 140
UAGUCAUACAGAGGAUAUCGUAUGAGUGAUGUUCAAGUGCGUACAUCAACUUGAUGUACAGAUAGACGAGAAGGCUGUAUGACUA [FMB B SS t6] | 449
AAGAGAUCGAGAAGGAGCGAGAAAGCUAGUACAUAUGUACUAGCAAAGCAGUGAUGUUGCACUCAGGUAGGUCGCUCGAUCUCAA [AK1 SS Arginine B] | 335
GGGCUAUAGUGAUGUUAUUGUCUAAACGAUACCAGUUCACCCGUGAACCCUUGGCAGCGUGGUGUAACCUAUCCUCGUUGCACUG [theeternabot_sameState_KL_Theo_A_28] | 523
GUCCACACUGCAGGAUAUGGAGGUAUAGCGAGGGAGUUUGGAAGCACACCUCUGGCAGUGAUGUUGCCAGAAGGGCGGUGCGGCG [Rauserin] | 64.3
UGUAUGUGAUGUGAUACCAGUGAAGAGCCAGUGAUGUUGGUAGAACUGGUAUAUAAAUAACACCCUUGGCAGCACAGUCACGUAC [whbob_Ex_Theo_B_sa100] | 279
AAUAAUGGAGUGAUGUUCCAGUAAUGGGAUACCAGACAUGAAAAUGUCCCUUGGCAGCUCAAAGGUCUAGUGAUGUUAGAAAGAA [KL-SSTheo-A5 #Double Kiss] | 282
AGGAUGUAGUGAUGUUAUAUAAGAAGUAGACGAGGACCGGUACGGCCGCCACUCGAAACGGCUACUAGCGCGUUGCGAGGUGUGC [ExTryptoA.Cg] | 468
AGGUCACGAGGAAGGAGCGCCCUGACAGGUUGCUGCCGUGGGCAGUGAUGUUGCUCAGUCCGGCAGGUAGGUCGCCUCGUGACCU | 111
AGAGUUUUAUGAGGAUAUGAGAUAGUUAAUGAGUGAGUUAUAGUGUAGUUUGGUUAGUGAUGUUAUUUAGAAGGCGUGAGUGAUG [zzfzmullin] | 101

Same assay, conditions: Eterna round: R107; input ligand: tryptophan 2.4 mM

Sequence | apparent KD of K4 kissing-loop reporter [nM]
GCGCGUCAUGGCGGCGGUGACUACGCCGAUACCAGCCGGGAAACCGGCCCUUGGCAGCGGCGCGCCGGAGUGAUGUUCCGACAGA [#2 Exclusion - Theophylline A Attempt #4 (HarryS)] | 214
GGUAGCAUGGCGGCCGCCACUAGAUCAGUGAUGUUGAUCCCGCCGUCUUACGGCGAGUCAGAGGCUAGGACCGGGCCAUGCUACC | 963
CAUACGCAUGGAGGAUAUGAGAUUUCUCAUAUUAUUUAAUAUUCUCAGUGAUGUUGAGAAUUUAACUCAGAAGGCCAUGUGUAUG [Ex FMN B 5] | 152
UGAUGUUUAGGUCACCCAGUGAUGUUGGAAGGAGCGUGCGAAAGCACAGGUAGGUCGCCAAUCUCCUUGUGACCUGAGCAUCUAA [#SwitchBubble 14 #K4Early] | 854
UUAUUAAUAACAGAUACCAGUCCAGAAUGAAUACUAUAGUGAUGUUAUAAUAAAGGGAAGGACCCUUGGCAGCUGUAAUAUAUUU [AstrosSSTheB#1] | 368
AAGUCUCGUUAAUUCGUGGUUUCGAUCGAUACCAGUAGCGAGAGUUACCCUUGGCAGCGAAAUGAGUGAUGUUCAUGAAAGAAGA [KL-XTheoA10] | 60
CAUACGCAUGGAGGAUAUGAGAUUUUUCAUAUUACUUUUUAUUCUCAGUGAUGUUGGGAUUUGUAAUCAGAAGGCCAUGUGUAUG [#10 K4 FMN B Exclusion] | 98.1
GGAAGGAAGGGAAGGAGCGCGCAGGCAGUGAUGUUGCCAAACAAAACAAACAAAACAAAAGCGCAGGUAGGUCGCCCGAAGGACG | 62.9
GACUACCGGGCGGCCGCCACUGGGCUCCGAGUGAUGUUCGGAAAGACUCAUACACUGCUGUCAGACAGGACCGGGCCAAGGCGCA [theeternabot_sameState_KL_Trp_B_5] | 151
GCGUUCAUGGCAGGAUAUAGGUAAAGGAGUGAUGUUCCUUAUGUUGCAUUUACUUAAUCCAACUCCCUAGAAGGGCCAUGAACGC | 146
CGCAGUGAUGUUGCGAGUAGCUACAGGGAAGGAGCGCGCUAGUGCGCAGGUAGGUCGCCCACGCAGUGAUGUUGCGUCAUAGGGU [Exclusion Arg A GF8] | 109
UCCUUAUCGCGGUCAUAAAGCCUAUAAAACAAGGAUAUCUCAUCAGAGAGAAGGUGUGAGUGAUGUUCAAAGGCCACCACGGGUU [theeternabot_sameState_KL_FMN_A_47] | 818
GGGCAUGUUAAAGGAUAUAGCAGGUGAUACAAGAAAGUGAGUGAUGUUUAUGUAGAUGAUGAUAUGUUAGAAGGUUAACAAAACC [abcdefghijklm] | 374
UGUCAUUGGUCGGCCGCCACUUCAUGUAGAGUGAUGUUCUGUAAGACGGAUCGAAAGAUCUGUCGAAGGACCGGGACCGAUGACU [FiskerMod 13 - Jieux - Same State - Tryptophan B] | 326
AUUUAAUGUAUAGAUUAUAUACAUAAUUCAGAGGAUAUGCAUAGAAGCAGAAGGCUGGUUGCAGUGAUGUUGCUUUUUUAAUUUA [JR_SSFMNA_Sub008] | 63.8
AAAAUAAUCCAGUGAUGUUGGUAUCCAGAUACCAGCCAGGAAACUGGCCCUUGGCAGCUGUGGACGUACAAAAUAAGUACGUCCU [#OpenEnded 10 #StaticStem #K4Early] | 355
UGUAAUGAGUGAUGUUCAUGUAGUAAGGAUACCAGUAAUUCAAAAUGCCCUUGGCAGCUUAGUUCUAUCUAUAGUUGGGUAGUGG [Theophilline A V4 (+5U)] | 123
AAGGGCGAGGUAACGUGGAUAUCUCGUCGCAAGGAUAUCUGGAAACAGAGAAGGUGCUACAUUACCGGCAGUGAUGUUGCUGACC | 261
AAUGGAGGCUGAAGGAGCGCCGCCAGUGAUGUUGGGAGUUAGAUACCAGUGAUGUUGGGCCGGCAGGUAGGUCGCGGUUUUUAUU [Exclusion Arginine B Gf 16] | 126
GCAGUCAAUCGACCACGAAAGUGGAUGGAUACCAGCCCGAAACCGGGCCCUUGGCAGCCAGUGAUGUUGGAAGACUGCUUUAAAA [#SwitchBubble 14 #K4Late] | 660
UGACAUUGCUCAGAUACCAGACUUGAGGAACACCCAAGUGCCAAAUACGUACAAAUAAAAGUCCCUUGGCAGCUGAGCAAUGUCU [TheoBX 12] | 38.5
UCUGAAGGUGGAGGAUAUUGAUUGAAUCUUGGUCAGGAGUGAUGUUCCGGGAAGCCUUGGAUUCAUCGAGAAGGCCAAGGAUAGU [#10 K4 FMN B Same State] | 225

Sequence | apparent KD of K4 kissing-loop reporter [nM]
UAAAUUAAGCUUUGCUGAUUAAUAAGCGAUACCAGCAAAUAAUGAUGCCCUUGGCAGCGUUAUAAUCUAGUGAUGUUAGAUUAGU [Not much to say about this one] | 85
UAUAAUUCGGCGGCCGCCACUGACCAUAGCCUUCGAUGGCCAGUGAUGUUGGCCUCUGGCUCUAACAGGACCGGGCCGAAUUGCG [Aririmaus] | 135
UCGAUGGCCAGCGAUACCAGCCCAGUGAUGUUGGGCACAUGGUUGCGGGAAAUCCCAUUGGGCCCUUGGCAGCGCUUGCAUGGGU [Dizaisa] | 125
AAAUUUAAUAUAUUUAAUUAAUUAUGUGAUACCAGACAUUUAUAAGUCCCUUGGCAGCACUUUGCAGUGAUGUUGCAUAUAAUAA [JR_SSTheophyA_Sub013] | 99.2
UGAUUUAACUGAAGGAGCGGCAAUUGAUAAGUAAAUAUAGUGAUGUUAUAUAAGAUAGAGAGCCAGGUAGGUCGCAGAGGGAGGA [ExArgB.J] | 129
CCAGGUUGCCGCAACGACCUGGAUUUUAGGGAGGAUAUCCAGAGCAGGAGAAGGCCCAGUGAUGUUGGGCCUGUGGAGCCCAUAU [Ararensoza] | 151
CUCGAGUGAUGUUCGAUUAUUUAUACAGAUACCAGUGAAUUUUAACACCCUUGGCAGCUGGUUGUAUCUUUGUUUUUUACACAAG [JR_ExcTheophyA_Sub006] | 107
UAAUCCUAGUGAUCCUUAUCAAGUGGUGGGCGAGGACCGGUACGGCCGCCACUCGAAUAUGCAGUGAUGUUGUAAUCCGGAUAAU [Exclusion - Tryptophan A (Freestyle 9)] | 440
UGUCAUUGGUCGGCCGCCACUAGGACCGGGUUUUACCUAGUGAUGUUAGUAUAAACGGCCGCCACUAGGACCGGGACCGAUGACU [KL-SSTryp-B24 #DoubleAptamer] | 122
AAUCAAUACAGAAGGAGCGUGACAAUUACUAUUGAUUCAGGAGCUAGUGAUGUUAGCAUUUCACAGGUAGGUCGCUGUACAUUUA [JR_SSArginiB_Sub013] | 153
GCCGUAGAUUGAAGGAGCGAGUAGGCUCACUUGCGAAGUGAAUAGCAGAGUGAUGUUCUGUCUCAGGUAGGUCGCAAUCUACGGC | 397
UAUUUGAUGUCAGGAUAUCGUAUACGAGUGAUGUUCGUAUUUCUACUAUAGAUUAUUUAAAUUUUUCGAGAAGGGACAACAUUUA [#04 K4 FMN B Same State] | 122
UAGUCAUACAGAGGAUAUCGUAUGAGUGAUGUUCAAGUGCGUACAUCAACUUGAUGUACAGAUAGACGAGAAGGCUGUAUGACUA [FMB B SS t6] | 492
AAGAGAUCGAGAAGGAGCGAGAAAGCUAGUACAUAUGUACUAGCAAAGCAGUGAUGUUGCACUCAGGUAGGUCGCUCGAUCUCAA [AK1 SS Arginine B] | 314
GGGCUAUAGUGAUGUUAUUGUCUAAACGAUACCAGUUCACCCGUGAACCCUUGGCAGCGUGGUGUAACCUAUCCUCGUUGCACUG [theeternabot_sameState_KL_Theo_A_28] | 554
GUCCACACUGCAGGAUAUGGAGGUAUAGCGAGGGAGUUUGGAAGCACACCUCUGGCAGUGAUGUUGCCAGAAGGGCGGUGCGGCG [Rauserin] | 83.9
UGUAUGUGAUGUGAUACCAGUGAAGAGCCAGUGAUGUUGGUAGAACUGGUAUAUAAAUAACACCCUUGGCAGCACAGUCACGUAC [whbob_Ex_Theo_B_sa100] | 242
AAUAAUGGAGUGAUGUUCCAGUAAUGGGAUACCAGACAUGAAAAUGUCCCUUGGCAGCUCAAAGGUCUAGUGAUGUUAGAAAGAA [KL-SSTheo-A5 #Double Kiss] | 232
AGGAUGUAGUGAUGUUAUAUAAGAAGUAGACGAGGACCGGUACGGCCGCCACUCGAAACGGCUACUAGCGCGUUGCGAGGUGUGC [ExTryptoA.Cg] | 326
AGGUCACGAGGAAGGAGCGCCCUGACAGGUUGCUGCCGUGGGCAGUGAUGUUGCUCAGUCCGGCAGGUAGGUCGCCUCGUGACCU | 148
AGAGUUUUAUGAGGAUAUGAGAUAGUUAAUGAGUGAGUUAUAGUGUAGUUUGGUUAGUGAUGUUAUUUAGAAGGCGUGAGUGAUG [zzfzmullin] | 108
